Measurements published in article PMC4976356, “Structural insight into β-Clamp and its interaction with DNA Ligase in Helicobacter pylori” (Scientific Reports, 2016).

What was measured:
[1] = target: the molecule itself; experiment: SEC; gel filtration on HiLoad G200 16/60; 30 mM Tris pH 7.5, 150 mM NaCl, 5% glycerol, 30 mM arginine, 6 mM βMe
[2] = target: T1, NAD-dependent DNA ligase from Helicobacter pylori 26695 (Helicobacter pylori 26695, UniProt O25336 1-656); conditions: both partners purified
T1 construct: Cloned and expressed in a similar manner to the β-clamp (NcoI/XhoI, pET 28(b)); by the printed forward primer Met-Gly would stand before Met1, and the reverse primer has no stop codon, so a C-terminal vector His tag is likely (surmised); also called HpDNA ligase; Hpligase; source: E. coli BL21, purified (Ni Sepharose, HiLoad G200 gel filtration)

B1: β-clamp from Helicobacter pylori 26695 (natural protein, UniProt O25242 1-374, looked up)
chain: MKISVSKNDLENALRYLQAFLDKKDASSIASHIHLEVIKEKLFLKASDSDIGLKSYIFTQSSDKEGVGTINGKKFLDIISCLKDSNIILETKDDSLAIKQNKSSFKLPMFDADEFPEFPVIDPKVSIEVNAPFLVDAFKKIAPVIEQTSHKRELAGILMQFDQKHQTLSVVGTDTKRLSYTQLEKISIHSTEEDISCILPKRALLEILKLFYENFSFKSDGMLAVIENEMHTFFTKLIDGNYPDYQKILPKEYISSFTLGKEEFKESIKLCSSLSSTIKLTLEKNNALFESLDSEHSETAKTSVEIEKGLDIEKAFHLGVNAKFFLEALNALGTTQFVLRCNEPSSPFLIQESLDEKQSHLNAKISTLMMPITL
notes: DNA polymerase III beta subunit (β-clamp) of Helicobacter pylori 26695; domains I-III span Met1 to Leu374; Cloned between NcoI and XhoI of pET 28(b); the reverse primer has no stop codon, so a C-terminal vector His tag is likely (surmised); By the printed forward primer the ATG of the NcoI site is out of frame with the gene's own ATG; also called Hpβ-clamp; H. pylori β-clamp; source: E. coli …
- stoichiometry N [1]: 2
- Kd [2]: 1250 nM
